Laboratory results as given in US6653127B1, “Single-chain recombinant complexes of hepatitis C virus NS3 protease and NS4A cofactor peptide” (Schering Corporation, priority 1997, dated 2003).

Experiments:
NS3 = NS3 (Hepatitis C virus genotype 1b, UniProt P26663); conditions: read-out: affinity for NS3 in solution; cited from earlier work
[1] = molecular target: Biotin-DTEDVVAC …-pY (streptavidin-tagged peptide) (Hepatitis C virus); experiment: SPR (BIAcore); 4G10 amine-coupled to the chip, streptavidin-tagged phosphotyrosine peptide injected, regeneration with 2 M MgCl2
[2] = molecular target: T1, 5A/5B (P8P8') substrate DTEDVVCC*SMSYTWTG-K
T1 chain: DTEDVVCCSMYTWTGK

[3] = Size exclusion chromatography (aggregated vs monodispersed form); type: physicochemical; conditions: for period for which the complex remains monodispersed: 4° C.
Procedure: Two hundred μl of various purified proteins were applied to a calibrated Superdex-75 HR (1 cm×30 cm) FPLC column equilibrated with 25 mM HEPES, pH 7.4, 1M NaCl and 10% glycerol and 10 mM βME at 0.5 ml/min. The column was precalibrated using Pharmacia standard calibration proteins (BSA: 67 KDa; Ovalbumin: 43 KDa; Chymotrypsinogen A: 31 KDa; Ribonuclease A: 13.7 KDa). Protein elution was monitored at 280 nm.

[4] = Solubility judged by achievable concentration of the complex; type: physicochemical
Source text: Thirteen representative embodiments of such mutant NS4A-NS3 complexes are disclosed in the Examples below. In some embodiments, the isoleucine at position 17 is mutated to lysine. One such mutant form is referred to as His-NS4A21-32-GSGS-NS33-181/I17K (SEQ ID NO: 2). In other embodiments, the same mutation is made at position 18. One such mutant form is referred to as His-NS4A21-32-GSGS-NS33-181/I18K (SEQ ID NO: 3). In yet other embodiments, the mutations are introduced at both positions. One such mutant is referred to as His-NS4A21-32-GSGS-NS33-181/I17K,I18K (SEQ ID NO: 4).
A “soluble” covalent complex as referred to herein is defined as a protein which will remain in solution after a high spin centrifugation step at 300,000×g in a standard ultracentrifuge in a buffer containing 25 mM HEPES, pH 7.6, 10% glycerol, 0.3 M NaCl, 10 mM βME.

[5] = test system: 5A/5B (P8P8′) substrate DTEDVVCC*SMSYTWTG-K; experiment: Proteolytic activity by 1D-HPLC (reverse-phase) with 5A/5B substrate; type: biochemical, HCV Japanese (1b/BK) strain; conditions: for Km / kcat: 5A/5B substrate, room temperature, 60 min, footnote a for His-NS31-181 + NS4A Peptide: [E] = 0.25 μM, [NS4A Peptide] = 10 μM
Procedure: Following expression and purification, newly engineered recombinant species were assayed for proteolytic activity utilizing a 1D-HPLC (reverse-phase chromatography) technique. Assays were conducted using the 5A/5B (P8P8′) substrate DTEDVVCC*SMSYTWTG-K (SEQ ID NO: 25) in 25 mM Tris-HCl pH 7.5, 150 mM NaCl, 0.5 mM EDTA, 10 mM DTT, 10% glycerol, and 0.05% lauryl maltoside. Concentration of all proteins were determined by BIORAD dye method). […] Reactions were incubated at room temperature for 60 minutes and were quenched with an equal volume of 10% phosphoric acid. Following injection, cleavage products were monitored under a linear 0-80% acetonitrile gradient in 0.1% TFA. The product P1′P8′K peak areas were automatically converted to product quantity in nanomoles by a standard curve.
The various covalent NS4A-NS3 complexes whose proteolytic efficiency has been determined according to the above method, and the results of each determination, are shown in Table 1.

[6] = molecular target: T2, His-NS31-181 (NS3 catalytic domain) (Hepatitis C virus (1b/BK strain), UniProt Q9WMX2 1027-1206); experiment: cell-based or functional assay
T2 chain: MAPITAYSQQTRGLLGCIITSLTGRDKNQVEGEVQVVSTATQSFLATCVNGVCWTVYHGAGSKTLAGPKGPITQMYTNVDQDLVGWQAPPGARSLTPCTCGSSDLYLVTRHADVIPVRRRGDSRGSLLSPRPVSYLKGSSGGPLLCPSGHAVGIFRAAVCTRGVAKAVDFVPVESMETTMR

Molecule	Km [2] [µM]	kcat [2] [s⁻¹]	kcat/Km [2] [M⁻¹ s⁻¹]	dispersion state as judged by size exclusion chromatography [3]	period for which the complex remains monodispersed [3]	achievable concentration of the complex (solubility) [4] [mg/mL]	kinetic properties compared with wild type [5]	also measured
NS4A peptide: 13-19 residue NS4A peptide spanning the central hydrophobic domain of the full-length NS4A protein (KKGSVVIVGRIVLSGKPAIIPKK)	–	–	–	–	–	–	–	Kd (NS3): 10 µM
Anti-phosphotyrosine monoclonal antibody 4G10 (Upstate Biotechnology Inc.)	–	–	–	–	–	–	–	% binding of tagged peptide after regeneration [1]: 100%
His-NS31-181 + NS4A Peptide (non-covalent complex) (protein) chain 1: MAPITAYSQQTRGLLGCIITSLTGRDKNQVEGEVQVVSTATQSFLATCVNGVCWTVYHGAGSKTLAGPKGPITQMYTNVDQDLVGWQAPPGARSLTPCTCGSSDLYLVTRHADVIPVRRRGDSRGSLLSPRPVSYLKGSSGGPLLCPSGHAVGIFRAAVCTRGVAKAVDFVPVESMETTMR chain 2: KKGSVVIVGRIVLSGKPAIIPKK	80	0.05	500	–	–	–	–	–
His-NS4A21-32-GSGS-NS33-181/I17K (protein) MGSSHHHHHHSSGLVPRGSHMGSVVIVGRIILSGSGSITAYSQQTRGLLGCKITSLTGRDKNQVEGEVQVVSTATQSFLATCVNGVCWTVYHGAGSKTLAGPKGPITQMYTNVDQDLVGWQAPPGARSLTPCTCGSSDLYLVTRHADVIPVRRRGDSRGSLLSPRPVSYLKGSSGGPLLCPSGHAVGIFRAAVCTRGVAKAVDFVPVESMETTMRS	20	0.267	14000	monodispersed	about one week	17 to 20	identical to those of the wild type	Km [5]: 20 ± 2 µM; kcat [5]: 0.267 ± 0.05 s⁻¹
His-NS4A21-32-GSGS-NS33-181/I18K (protein) MGSSHHHHHHSSGLVPRGSHMGSVVIVGRIILSGSGSITAYSQQTRGLLGCIKTSLTGRDKNQVEGEVQVVSTATQSFLATCVNGVCWTVYHGAGSKTLAGPKGPITQMYTNVDQDLVGWQAPPGARSLTPCTCGSSDLYLVTRHADVIPVRRRGDSRGSLLSPRPVSYLKGSSGGPLLCPSGHAVGIFRAAVCTRGVAKAVDFVPVESMETTMRS	22	0.167	8000	monodispersed	about one week	17 to 20	identical to those of the wild type	Km [5]: 22 ± 2 µM; kcat [5]: 0.167 ± 0.033 s⁻¹
His-NS4A21-32-GSGS-NS33-181 (protein) MGSSHHHHHHSSGLVPRGSHMGSVVIVGRIILSGSGSITAYSQQTRGLLGCIITSLTGRDKNQVEGEVQVVSTATQSFLATCVNGVCWTVYHGAGSKTLAGPKGPITQMYTNVDQDLVGWQAPPGARSLTPCTCGSSDLYLVTRHADVIPVRRRGDSRGSLLSPRPVSYLKGSSGGPLLCPSGHAVGIFRAAVCTRGVAKAVDFVPVESMETTMRS	19	0.15	8000	–	–	–	–	–
His-NS4A21-32-GSGS-NS33-181/I17K,I18K (protein) MGSSHHHHHHSSGLVPRGSHMGSVVIVGRIILSGSGSITAYSQQTRGLLGCKKTSLTGRDKNQVEGEVQVVSTATQSFLATCVNGVCWTVYHGAGSKTLAGPKGPITQMYTNVDQDLVGWQAPPGARSLTPCTCGSSDLYLVTRHADVIPVRRRGDSRGSLLSPRPVSYLKGSSGGPLLCPSGHAVGIFRAAVCTRGVAKAVDFVPVESMETTMRS	–	–	–	monodispersed	about one week	17 to 20	identical to those of the wild type	–
NS31-631-NS4A1-54 (non-covalent full-length NS3 protease / NS4A complex) (protein) chain 1: MAPITAYSQQTRGLLGCIITSLTGRDKNQVEGEVQVVSTATQSFLATCVNGVCWTVYHGAGSKTLAGPKGPITQMYTNVDQDLVGWQAPPGARSLTPCTCGSSDLYLVTRHADVIPVRRRGDSRGSLLSPRPVSYLKGSSGGPLLCPSGHAVGIFRAAVCTRGVAKAVDFVPVESMETTMRSPVFTDNSSPPAVPQSFQVAHLHAPTGSGKSTKVPAAYAAQGYKVLVLNPSVAATLGFGAYMSKAHGIDPNIRTGVRTITTGAPVTYSTYGKFLADGGCSGGAYDIIICDECHSTDSTTILGIGTVLDQAETAGARLVVLATATPPGSVTVPHPNIEEVALSNTGEIPFYGKAIPIEAIRGGRHLIFCHSKKKCDELAAKLSGLGINAVAYYRGLDVSVIPTIGDVVVVATDALMTGYTGDFDSVIDCNTCVTQTVDFSLDPTFTIETTTVPQDAVSRSQRRGRTGRGRRGIYRFVTPGERPSGMFDSSVLCECYDAGCAWYELTPAETSVRLRAYLNTPGLPVCQDHLEFWESVFTGLTHIDAHFLSQTKQAGDNFPYLVAYQATVCARAQAPPPSWDQMWKCLIRLKPTLHGPTPLLYRLGAVQNEVTLTHPITKYIMACMSADLEVVT chain 2: STWVLVGGVLAALAAYCLTTGSVVIVGRIILSGRPAIVPDRELLYQEFDEMEEC	20	0.167	8000	–	–	–	–	–
KKGSVVIVGRIVLSGKPAIIPKK [4A peptide KKGSVVIVGRIVLSGKPAIIPKK]	–	–	–	–	–	–	–	catalytic activity relative to full-length NS31-631-NS4A1-54 [6]: 8 fold lower
